Source: paper PMC12402178

How the values were obtained:
[1] = target: microtubules polymerised from porcine brain tubulin (GMPCPP-stabilised seeds, dynamic GDP lattice, or taxol-stabilised) (porcine) (UniProt P02550); test: FRAP (TIRF microscopy); anillin-GFP bleached on single GDP (dynamic) microtubules; single exponential fit, median of fits; 26 C
[2] = target: microtubules polymerised from porcine brain tubulin (GMPCPP-stabilised seeds, dynamic GDP lattice, or taxol-stabilised) (porcine) (UniProt P02550); test: FRAP (TIRF microscopy); anillin-GFP bleached on single GMPCPP microtubules; single exponential fit, median of fits

Anillin-GFP (full-length human anillin, isoform 2, 1087 amino acids), sequence (Q9NQW6 other isoform, or with tags, fused parts or gaps): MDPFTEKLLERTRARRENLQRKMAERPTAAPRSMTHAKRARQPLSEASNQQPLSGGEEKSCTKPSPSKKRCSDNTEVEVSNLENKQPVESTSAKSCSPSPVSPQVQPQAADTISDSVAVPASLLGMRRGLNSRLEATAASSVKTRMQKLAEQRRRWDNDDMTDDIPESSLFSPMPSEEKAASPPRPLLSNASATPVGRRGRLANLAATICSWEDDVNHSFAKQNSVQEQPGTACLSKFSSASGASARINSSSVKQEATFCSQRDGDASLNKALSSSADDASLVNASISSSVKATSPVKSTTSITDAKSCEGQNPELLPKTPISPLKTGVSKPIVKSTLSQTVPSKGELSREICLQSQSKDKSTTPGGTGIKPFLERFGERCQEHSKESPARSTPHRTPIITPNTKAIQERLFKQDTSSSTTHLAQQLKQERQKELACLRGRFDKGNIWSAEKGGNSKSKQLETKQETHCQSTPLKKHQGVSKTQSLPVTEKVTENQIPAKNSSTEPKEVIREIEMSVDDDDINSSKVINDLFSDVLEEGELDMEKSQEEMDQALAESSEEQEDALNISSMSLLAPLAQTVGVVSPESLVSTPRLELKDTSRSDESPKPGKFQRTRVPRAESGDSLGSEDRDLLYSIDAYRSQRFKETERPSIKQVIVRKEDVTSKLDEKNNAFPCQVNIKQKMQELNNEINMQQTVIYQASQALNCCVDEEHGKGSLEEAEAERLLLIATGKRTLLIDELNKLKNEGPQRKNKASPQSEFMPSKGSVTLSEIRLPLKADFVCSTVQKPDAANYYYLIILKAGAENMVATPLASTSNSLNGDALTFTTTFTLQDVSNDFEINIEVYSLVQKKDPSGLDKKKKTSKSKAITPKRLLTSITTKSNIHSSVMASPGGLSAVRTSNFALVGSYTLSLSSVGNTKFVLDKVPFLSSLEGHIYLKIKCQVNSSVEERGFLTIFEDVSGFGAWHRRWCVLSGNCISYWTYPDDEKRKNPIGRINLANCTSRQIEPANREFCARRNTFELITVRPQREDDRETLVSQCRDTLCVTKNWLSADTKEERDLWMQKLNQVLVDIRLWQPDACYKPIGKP

**Q.** With “Anillin-GFP (full-length human anillin, isoform 2, 1087 amino acids) (from UniProt Q9NQW6-2 1-1087) (natural protein)” as the substance, how does the koff [1] read?
**A.** 1.07 s⁻¹

**Q.** And the koff [2]?
**A.** 0.26 s⁻¹
